Assays:
[1] = tested on: RD29B-LUC expression; assay: Reconstituted ABA signaling pathway, transient expression in wild-type (Col-0) protoplasts; format: cell-based, Arabidopsis; details: for ABA-dependent induction of RD29B-LUC expression: co-transfected with ABI1, SnRK2.6 and ABF2, without or with 5 μM ABA, 4.5 h
Procedure: To test whether PYL13 can act as an ABA receptor, the ABA signaling pathway in wild-type protoplasts was reconstituted. Turning now to FIG. 1, wild-type (Col-0) protoplasts were used in both panels A and B. After transfection, the protoplasts were incubated for 4.5 hours under light in the absence of ABA (open bars) or in the presence of 5 μM ABA (closed bars). Error bars indicate s.e.m. (n=3). […] ZmUBQ-GUS was used as the internal control. […] Instead, the ABA signaling pathway was reconstituted by co-expression of PYLs, ABI1, SnRK2.6, and ABF2. […] Therefore, the response of other members of the PYL family would not predict the response of PYL13 expression or over-expression in plants.
PYL13 interacts with all clade A PP2Cs tested but binds most strongly to PP2CA. To investigate whether PYL13 inhibits PP2Cs in planta, PYL13 was co-expressed with all clade A PP2Cs in wild-type protoplasts, as shown in FIG. 4. Transfections of all PP2Cs together with SnRK2.6 and ABF2 inhibited RD29B-LUC expression to different degrees, see FIG. 4A, and the degree of inhibition was correlated with the intensity of interaction between PP2Cs and SnRK2.6 (Fujii et al., 2009). […] The ABA signaling pathway was reconstituted by co-expression of PYLs, PP2Cs, SnRK2.6, and ABF2. RD29B-LUC was used as the ABA-responsive reporter. ZmUBQ-GUS was used as the internal control. After transfection, protoplasts were incubated for 4.5 h under light in the absence of ABA (open bars) or in the presence of 5 μM ABA (closed bars). Error bars indicate s.e.m. (n=9).
To investigate the physiological significance of the binding between PYL13 and PYLs in vivo, PYL13 was co-expressed with one of the other PYLs, ABI1, SnRK2.6, and ABF2 in wild-type protoplasts. When the transfected PYL13 plasmid was 2-fold of that of the other PYLs, co-transfections with PYL13 decreased the activity of the ABA-responsive PYLs (FIG. 5E). […] ZmUBQ-GUS was used as the internal control. After transfection, protoplasts were incubated for 4.5 h under light in the absence of ABA (open bars) or in the presence of 5 μM ABA (closed bars). Error bars indicate s.e.m. (n=3).
The ABA signaling pathway was reconstituted by co-expression of PYL13, PYLs, ABI1, SnRK2.6, and ABF2. […] Error bars indicate s.e.m. (n=3). […] Without wishing to be bound by theory, PYL13 inhibition of other PYLs might result from direct interactions between PYL13 and other PYLs or from competition for the binding sites on PP2Cs.
(§1) Assays for transient expression in protoplasts were performed as described (Fujii et al., 2009). Leaf strips (0.5 mm) were cut from the middle part of second leaves using a razor blade (VWR SCIENTIFIC) and submerged in 15 mL of enzyme solution containing 20 mM MES, pH 5.7, 1.5% (w/v) cellulase R10 (YAKULT PHARMACEUTICAL INDUSTRY), 0.4% (w/v) macerozyme R10 (YAKULT PHARMACEUTICAL INDUSTRY), 0.4 M mannitol, 20 mM KCl, 10 mM CaCl2, 1 mM 2-mercaptoethanol, and 0.1% BSA. The leaves were vacuum infiltrated for 30 min and then incubated without shaking for 3 h in the dark at room temperature. The enzyme/protoplast solution was diluted with 15 mL of W5 solution (2 mM MES, pH 5.7, 154 mM NaCl, 125 mM CaCl2, and 5 mM KCl) and filtered with a 75-μm nylon mesh. Protoplasts were centrifuged at 100 g for 2 min in a 30-mL round-bottomed tube (SARSTEDT), resuspended in W5 solution, and rested for 30 min at room temperature.
Before transfection, protoplasts were changed into MMg solution (4 mM MES, pH 5.7, 0.4 M mannitol, and 15 mM MgCl2) to a final concentration of 2×10^5 cells per microliter. Protoplasts (100 μl) were gently and thoroughly mixed with the plasmid DNA mixture (less than 10 μl) and 110 μl of PEG solution (40% w/v PEG-4000, 0.2 M mannitol, and 100 mM CaCl2), incubated for 5 min, washed with 440 μl of W5 solution, and resuspended in 50 μl of WI solution (4 mM MES, pH 5.7, 0.5 M mannitol, and 20 mM KCl). After transfection, protoplasts were incubated in WI solution without ABA or with 5 μM ABA under light. […]

[2] = tested on: RD29B-LUC expression; assay: ABA-independent induction of RD29B-LUC in triple mutant protoplasts; format: cell-based, Arabidopsis; details: for ABA-independent RD29B-LUC expression, as share of that in the presence of 5 μM ABA: abi1/hab1/abi2 and abi1hab1pp2ca triple mutant protoplasts, with SnRK2.6 and ABF2
Text: The basal RD29B-LUC expression level was elevated in protoplasts co-transfected with PP2CA-PYL13, HAI2-PYL13, or HAI3-PYL13, which is consistent with PYL13 inhibition of these PP2Cs in an ABA-independent manner in vivo (FIG. 4A). To exclude interference by endogenous PP2Cs in wild type protoplasts and to assess the ABA-independent selective inhibition of PP2Cs by PYL13, PYL13 was co-expressed with PP2CA, HAI1, HAI2, and HAI3 in abi1/hab1/abi2 triple mutant protoplasts, as shown in FIG. 4C. After transfection, protoplasts were incubated for 4.5 h under light in the absence of ABA. Error bars indicate s.e.m. (n=3).
Expression of RD29B-LUC in the absence of ABA was increased in the transfections of PYL9-K63Q/L89F or PYL11-K39Q/L66F together with SnRK2.6 and ABF2 to a considerable level. The ABA-independent RD29B-LUC expression is about 70% of that in the presence of 5 μM ABA in the transfection of PYL11-K39Q/L66F, while about 30˜60% in the transfection of PYL9-K63Q/L89F (FIG. 4). […] RD29B-LUC was used as the ABA-responsive reporter. ZmUBQ-GUS was used as the internal control. After transfection, protoplasts were incubated for 4.5 h under light in the absence of ABA (open bars) or in the presence of 5 μM ABA (closed bars). Error bars indicate s.e.m. (n=4).
as §1
Before transfection, protoplasts were changed into MMg solution (4 mM MES, pH 5.7, 0.4 M mannitol, and 15 mM MgCl2) to a final concentration of 2×10^5 cells per microliter. Protoplasts (100 μl) were gently and thoroughly mixed with the plasmid DNA mixture (less than 10 μl) and 110 μl of PEG solution (40% w/v PEG-4000, 0.2 M mannitol, and 100 mM CaCl2), incubated for 5 min, washed with 440 μl of W5 solution, and resuspended in 50 μl of WI solution (4 mM MES, pH 5.7, 0.5 M mannitol, and 20 mM KCl). After transfection, protoplasts were incubated in WI solution without ABA or with 5 μM ABA under light. The protoplasts were harvested after 4.5 h, frozen in liquid N2, and stored at −80° C.
The frozen protoplasts were resuspended in 50 μl of protoplast lysis buffer containing 2.5 mM Tris-phosphate, pH 7.8, 1 mM DTT, 2 mM DACTAA, 10% (v/v) glycerol, and 1% (v/v) Triton X-100. Protoplast lysates (20 μl) were mixed with 100 μl of LUC mix (PROMEGA), and LUC luminescence was measured with a plate reader (Wallac VICTOR2 plate reader).
Protoplast lysates (2 μl) were mixed with 10 μl of 4-methylumbelliferyl β-D-glucuronide (MUG) substrate mix (10 mM Tris-HCl, pH 8, 1 mM MUG [GOLD BIOTECHNOLOGY], and 2 mM MgCl2). After the mixture was kept for 30 min at 37° C., 100 μl of 0.2 M Na2CO3 was added, and GUS activity was measured using the plate reader with the excitation filter at 355 nm and the emission filter at 460 nm.
All the plasmids used in this assay were purified with the QIAGEN Plasmid Maxi Kit or the QIAGEN Plasmid Midi Kit. The quality of plasmid DNA is important for high transfection efficiency. RD29B::LUC (7 μg of plasmid per transfection) was used as the ABA-responsive reporter. ZmUBQ::GUS (2 μg of plasmid per transfection) was used as the internal control. […]

Molecule	ABA-dependent induction of RD29B-LUC expression [1]	RD29B-LUC expression ([1]; with ABI1, HAB1, HAB2, HAI1, and AHG1, SnRK2.6 and ABF2)	expression of RD29B-LUC in the absence of ABA ([2]; abi1/hab1/abi2 protoplasts, with PP2CA, HAI2, or HAI3, SnRK2.6 and ABF2)	ABA-independent RD29B-LUC expression, as share of that in the presence of 5 μM ABA [2]
Q38K/F71L (protein) MESSKQKRCRSSVVETIEAPLPLVWSILRSFDKPQAYKRFVKSCTMRSGGGGGKGGEGKGSVRDVTLVSGLPADFSTERLEELDDESHVMVVSIIGGNHRLVNYKSKTKVVASPEDMAKKTVVVESYVVDVPEGTSEEDTIFFVDNIIRYNLTSLAKLTKKMMK	could partially confer	conferred an ABA-dependent induction		
Q38K/F71L/N98D/T135N (protein) MESSKQKRCRSSVVETIEAPLPLVWSILRSFDKPQAYKRFVKSCTMRSGGGGGKGGEGKGSVRDVTLVSGLPADFSTERLEELDDESHVMVVSIIGGDHRLVNYKSKTKVVASPEDMAKKTVVVESYVVDVPEGNSEEDTIFFVDNIIRYNLTSLAKLTKKMMK	could partially confer		abolished	
Q38K/F71L/N98D (protein) MESSKQKRCRSSVVETIEAPLPLVWSILRSFDKPQAYKRFVKSCTMRSGGGGGKGGEGKGSVRDVTLVSGLPADFSTERLEELDDESHVMVVSIIGGDHRLVNYKSKTKVVASPEDMAKKTVVVESYVVDVPEGTSEEDTIFFVDNIIRYNLTSLAKLTKKMMK	could partially confer			
Q38K/F71L/T135N (protein) MESSKQKRCRSSVVETIEAPLPLVWSILRSFDKPQAYKRFVKSCTMRSGGGGGKGGEGKGSVRDVTLVSGLPADFSTERLEELDDESHVMVVSIIGGNHRLVNYKSKTKVVASPEDMAKKTVVVESYVVDVPEGNSEEDTIFFVDNIIRYNLTSLAKLTKKMMK	could partially confer			
PYL11-K39Q/L66F (protein) METSQKYHTCGSTLVQTIDAPLSLVWSILRRFDNPQAYQQFVKTCNLSSGDGGEGSVREVTVVSGFPAEFSRERLDELDDESHVMMISIIGGDHRLVNYRSKTMAFVAADTEEKTVVVESYVVDVPEGNSEEETTSFADTIVGFNLKSLAKLSERVAHLKL	cannot antagonize			about 70%
PYR1: Arabidopsis thaliana ABA receptor protein PYR1, AT4G17870 (protein, listed as Arabidopsis thaliana) MPSELTPEERSELKNSIAEFHTYQLDPGSCSSLHAQRIHAPPELVWSIVRRFDKPQTYKHFIKSCSVEQNFEMRVGCTRDVIVISGLPANTSTERLDILDDERRVTGFSIIGGEHRLTNYKSVTTVHRFEKENRIWTVVLESYVVDMPEGNSEDDTRMFADTVVKLNLQKLATVAEAMARNSGDGSGSQVT	restored RD29B-LUC expression			
PYL9-K63Q/L89F (protein) MMDGVEGGTAMYGGLETVQYVRTHHQHLCRENQCTSALVKHIKAPLHLVWSLVRRFDQPQKYQPFVSRCTVIGDPEIGSLREVNVKSGFPATTSTERLELLDDEEHILGIKIIGGDHRLKNYSSILTVHPEIIEGRAGTMVIESFVVDVPQGNTKDETCYFVEALIRCNLKSLADVSERLASQDITQ	cannot antagonize			30˜60%

Source: patent US9518268B2, “Drought tolerant transgenic plants and method of making same” (PURDUE RESEARCH FOUNDATION, priority 2013, dated 2016)
